{"source": "paper PMC8633003", "key": {"[1]": {"target": "Aca1 protein of Pseudomonas aeruginosa phage JBD30, full-length (1-79), wild type (Pseudomonas aeruginosa phage JBD30)", "assay": "SEC"}, "[2]": {"target": "T1, Aca1 R59A (Pseudomonas aeruginosa phage JBD30, UniProt L7P845 1-79, R59A)", "T1 sequence": "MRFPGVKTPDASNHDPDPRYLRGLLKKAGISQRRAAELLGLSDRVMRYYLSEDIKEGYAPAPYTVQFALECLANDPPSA", "assay": "ITC"}, "[3]": {"target": "T2, Aca1 R44A (Pseudomonas aeruginosa phage JBD30, UniProt L7P845 1-79, R44A)", "T2 sequence": "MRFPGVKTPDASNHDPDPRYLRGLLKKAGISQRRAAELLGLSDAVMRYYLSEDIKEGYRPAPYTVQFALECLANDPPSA", "assay": "ITC"}, "[4]": {"target": "T3, Aca1 R47A (Pseudomonas aeruginosa phage JBD30, UniProt L7P845 1-79, R47A)", "T3 sequence": "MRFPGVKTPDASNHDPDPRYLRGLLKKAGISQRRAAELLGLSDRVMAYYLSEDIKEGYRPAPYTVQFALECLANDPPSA", "assay": "ITC"}, "[5]": {"target": "T4, Aca1 R22A/Q32A (Pseudomonas aeruginosa phage JBD30, UniProt L7P845 1-79, R22A;Q32A)", "T4 sequence": "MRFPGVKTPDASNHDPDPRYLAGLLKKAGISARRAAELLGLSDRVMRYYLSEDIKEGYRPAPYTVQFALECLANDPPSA", "assay": "ITC"}, "[6]": {"target": "T5, Aca1 (Pseudomonas aeruginosa phage JBD30, UniProt L7P845 1-79)", "T5 sequence": "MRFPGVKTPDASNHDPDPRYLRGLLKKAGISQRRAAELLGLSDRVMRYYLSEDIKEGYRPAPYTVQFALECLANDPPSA", "assay": "ITC"}, "[7]": {"target": "T6, Aca1 Y48A (Pseudomonas aeruginosa phage JBD30, UniProt L7P845 1-79, Y48A)", "T6 sequence": "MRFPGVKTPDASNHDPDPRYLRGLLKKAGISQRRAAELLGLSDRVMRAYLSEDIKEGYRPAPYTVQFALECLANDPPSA", "assay": "ITC"}, "[8]": {"target": "T7, Aca1 S42G (Pseudomonas aeruginosa phage JBD30, UniProt L7P845 1-79, S42G)", "T7 sequence": "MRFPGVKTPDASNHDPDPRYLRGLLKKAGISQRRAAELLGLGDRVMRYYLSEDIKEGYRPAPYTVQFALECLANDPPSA", "assay": "ITC"}, "[9]": {"target": "T8, Aca1 V45A (Pseudomonas aeruginosa phage JBD30, UniProt L7P845 1-79, V45A)", "T8 sequence": "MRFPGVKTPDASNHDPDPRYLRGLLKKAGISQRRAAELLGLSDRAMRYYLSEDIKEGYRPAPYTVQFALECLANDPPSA", "assay": "ITC"}, "[10]": {"target": "T9, Aca2 R30A (Pectobacterium carotovorum temperate …, UniProt H9C180 1-116, R30A)", "T9 sequence": "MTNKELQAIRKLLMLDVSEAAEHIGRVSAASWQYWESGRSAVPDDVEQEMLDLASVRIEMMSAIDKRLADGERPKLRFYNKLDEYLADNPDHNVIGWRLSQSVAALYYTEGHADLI", "assay": "ITC"}, "[11]": {"target": "T10, Aca2 Y34A (Pectobacterium carotovorum temperate …, UniProt H9C180 1-116, Y34A)", "T10 sequence": "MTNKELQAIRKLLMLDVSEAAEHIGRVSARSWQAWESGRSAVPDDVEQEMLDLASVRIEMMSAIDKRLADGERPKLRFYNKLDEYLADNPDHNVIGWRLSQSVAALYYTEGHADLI", "assay": "ITC"}, "[12]": {"target": "T11, Aca2 R39A (Pectobacterium carotovorum temperate …, UniProt H9C180 1-116, R39A)", "T11 sequence": "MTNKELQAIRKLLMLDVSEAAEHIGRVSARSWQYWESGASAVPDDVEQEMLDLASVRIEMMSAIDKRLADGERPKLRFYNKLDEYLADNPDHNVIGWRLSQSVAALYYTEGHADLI", "assay": "ITC"}}}
{"molecule": "Aca1 protein of Pseudomonas aeruginosa phage JBD30, full-length (1-79), wild type (natural protein)", "values": [{"measurement": "stoichiometry N", "setting": "[1]", "result": 2}]}
{"molecule": "21-bp IR2 (dsDNA) DNA 1: ATTAGGCACAATGTGCCTAAT DNA 2: ATTAGGCACATTGTGCCTAAT", "values": [{"measurement": "binding result", "setting": "[2]", "result": "no binding"}, {"measurement": "binding result", "setting": "[3]", "result": "no binding"}, {"measurement": "binding result", "setting": "[4]", "result": "no binding"}, {"measurement": "binding result", "setting": "[5]", "result": "no binding"}, {"measurement": "Kd", "setting": "[6]", "result": 74.1, "unit": "nM"}, {"measurement": "Kd", "setting": "[7]", "result": 2860, "unit": "nM"}, {"measurement": "Kd", "setting": "[8]", "result": 59.2, "unit": "nM"}, {"measurement": "Kd", "setting": "[9]", "result": 364, "unit": "nM"}]}
{"molecule": "26-bp ZF40-IR1 blunt (dsDNA) DNA 1: TGCTTGTTCGCGATTGCGAACATATA DNA 2: TATATGTTCGCAATCGCGAACAAGCA", "values": [{"measurement": "binding result", "setting": "[10]", "result": "no binding"}, {"measurement": "binding result", "setting": "[11]", "result": "no binding"}, {"measurement": "binding result", "setting": "[12]", "result": "no binding"}]}
{"molecule": "19-bp IR2 blunt (dsDNA) DNA 1: TTAGGCACAATGTGCCTAA DNA 2: TTAGGCACATTGTGCCTAA", "values": [{"measurement": "Kd", "setting": "[6]", "result": 741, "unit": "nM"}]}
{"molecule": "23-bp IR2 (dsDNA) DNA 1: AATTAGGCACAATGTGCCTAATC DNA 2: GATTAGGCACATTGTGCCTAATT", "values": [{"measurement": "Kd", "setting": "[6]", "result": 32.2, "unit": "nM"}]}
{"molecule": "21-bp IR1 (dsDNA) DNA 1: AAGCGGCACACTGTGCCTATT DNA 2: AATAGGCACAGTGTGCCGCTT", "values": [{"measurement": "Kd", "setting": "[6]", "result": 53.2, "unit": "nM"}]}
